According to article PMC3229572:
Several values for one entry are separate records, joined by “and”; a condition that tells them apart may be missing. Equal values may be shown once.

Biological target: recombinant full length M2 protein of influenza virus A/Hong Kong/8/68 (H3N2) (influenza A virus A/Hong Kong/8/68 (H3N2))

How did the stoichiometry N turn out when “recombinant full length M2 protein of influenza virus A/Hong Kong/8/68 (H3N2) (natural protein)” was run?
The stoichiometry N was 4 and 8.
